# T1: GST-Arf1 (Saccharomyces cerevisiae (strain ATCC …, UniProt P11076))
# T1 chain: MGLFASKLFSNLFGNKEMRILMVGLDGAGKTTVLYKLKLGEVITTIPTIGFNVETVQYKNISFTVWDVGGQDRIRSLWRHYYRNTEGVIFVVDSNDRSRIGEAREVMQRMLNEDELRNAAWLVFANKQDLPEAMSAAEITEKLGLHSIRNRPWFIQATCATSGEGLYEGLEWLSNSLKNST
# What was measured:
# [1] = molecular target: construct corresponding to a predicted coiled-coil from the HDS4 domain of Sec7; experiment: SEC-MALS; 5 mg/ml, Wyatt WTC-050S5 gel filtration column with DAWN HELEOS-II and Optilab T-rEX detectors, room temperature; measured mass compared with that predicted from the sequence
# [2] = molecular target: full-length T. terrestris Sec7 (T. terrestris); experiment: as above
# [3] = molecular target: the molecule itself; experiment: as above
# GST-Arf1 = molecular target: T1, GST-Arf1; experiment: GST pulldown (also liposome pelleting); Arf1 loaded with GMPPNP or GDP; no stable nucleotide-dependent interaction seen (Arf1 is nevertheless a GEF substrate of Sec7ΔC)
Molecule,stoichiometry N [3],also measured
construct corresponding to a predicted coiled-coil from the HDS4 domain of Sec7 (domain or fragment),,stoichiometry N [1]: 2
full-length T. terrestris Sec7 (natural protein),,stoichiometry N [2]: 2
S. cerevisiae Sec7 DCB/HUS domain construct (domain or fragment) PRSTHTRNISLSSNGSNTNSTIILVKTTLETILNDKDIKKNSNAQKAIERTLQKFKEFDPQTTNNPHYVDSILVFEALRASCRTKSSKVQSLALDCLSKLFSFRSLDETLLVNPPDSLASNDQRQDAADGITPPPKQKIIDAAIDTISDCFQGEGTDDRVELQIVRALSSCILEEDSSSLCHGASLLKAIRTIYNVFVFSLNPSNQGIAQATLTQIISSVYDKIDLKQSTSSAVSLSTKNHQQQSAIELSEASENAETPAPLTLENMDKLNDDEERLMDAQQPDSIAITNQDLAVKDAFLVFRVMAKICAKPLETELDMRSHAVRSKLLSLHIIYSIIKDHIDVFLSHNIFLPGKERVCFIDSIRQYLRLVLSRNAASPLAPVFEVTLEIMWLLIANLRADFVKEIPVFLTEIYFPISELTTSTSQQKRYFLSVIQRICNDPRTLVEFYLNYDCNPGMPNVMEITVDYLTRLALTRVEITQTQRSYYDEQISKSLSTYNFSQLPLLTSSNLSSSPDVGQVNLLFPLDFALKMVSLNCIVSVLRSLSSWAHKALNPNTHTANKVLLNTTSSARQESRSSLSNDVRSSIMTSNDDFKPTYEDEESRSLSSQNIDADDPTQFEN,2,
"S. cerevisiae Gea2 full-length (natural protein, UniProt P39993 1-1459, looked up, Gea2, early-Golgi Arf-GEF of S. cerevisiae, full length) MSDREFVTVDPVTIIIKECINLSTAMRKYSKFTSQSGVAALLGGGSEIFSNQDDYLAHTFNNLNTNKHNDPFLSGFIQLRLMLNKLKNLDNIDSLTILQPFLLIVSTSSISGYITSLALDSLQKFFTLNIINESSQNYIGAHRATVNALTHCRFEGSQQLSDDSVLLKVVFLLRSIVDSPYGDLLSNSIIYDVLQTILSLACNNRRSEVLRNAAQSTMIAVTVKIFSKLKTIEPVNVNQIYINDESYTNDVLKADTIGTNVESKEEGSQEDPIGMKVNNEEAISEDDGIEEEHIHSEKSTNGAEQLDIVQKTTRSNSRIQAYADDNYGLPVVRQYLNLLLSLIAPENELKHSYSTRIFGLELIQTALEISGDRLQLYPRLFTLISDPIFKSILFIIQNTTKLSLLQATLQLFTTLVVILGNNLQLQIELTLTRIFSILLDDGTANNSSSENKNKPSIIKELLIEQISILWTRSPSFFTSTFINFDCNLDRADVSINFLKALTKLALPESALTTTESVPPICLEGLVSLVDDMFDHMKDIDREEFGRQKNEMEILKKRDRKTEFIECTNAFNEKPKKGIPMLIEKGFIASDSDKDIAEFLFNNNNRMNKKTIGLLLCHPDKVSLLNEYIRLFDFSGLRVDEAIRILLTKFRLPGESQQIERIIEAFSSAYCENQDYDPSKISDNAEDDISTVQPDADSVFILSYSIIMLNTDLHNPQVKEHMSFEDYSGNLKGCCNHKDFPFWYLDRIYCSIRDKEIVMPEEHHGNEKWFEDAWNNLISSTTVITEIKKDTQSVMDKLTPLELLNFDRAIFKQVGPSIVSTLFNIYVVASDDHISTRMITSLDKCSYISAFFDFKDLFNDILNSIAKGTTLINSSHDDELSTLAFEYGPMPLVQIKFEDTNTEIPVSTDAVRFGRSFKGQLNTVVFFRIIRRNKDPKIFSKELWLNIVNIILTLYEDLILSPDIFPDLQKRLKLSNLPKPSPEISINKSKESKGLLSTFASYLKGDEEPTEEEIKSSKKAMECIKSSNIAASVFGNESNITADLIKTLLDSAKTEKNADNSRYFEAELLFIIELTIALFLFCKEEKELGKFILQKVFQLSHTKGLTKRTVRRMLTYKILLISLCADQTEYLSKLINDELLKKGDIFTQKFFATNQGKEFLKRLFSLTESEFYRGFLLGNENFWKFLRKVTAMKEQSESIFEYLNESIKTDSNILTNENFMWVLGLLDEISSMGAVGNHWEIEYKKLTESGHKIDKENPYKKSIELSLKSIQLTSHLLEDNNDLRKNEIFAIIQALAHQCINPCKQISEFAVVTLEQTLINKIEIPTNEMESVEELIEGGLLPLLNSSETQEDQKILISSILTIISNVYLHYLKLGKTSNETFLKILSIFNKFVEDSDIEKKLQQLILDKKSIEKGNGSSSHGSAHEQTPESNDVEIEATAPIDDNTDDDNKPKLSDVEKD",2,
"S. cerevisiae Sec7ΔC (residues 203-1017) (domain or fragment, UniProt P11075 203-1017, looked up, Sec7 of S. cerevisiae, residues 203-1017 (DCB/HUS and GEF domains); also called Sec7(203-1017); construct lacking the HDS1-4 domains with the GEF domain; source: E. coli, purified (Ni-NTA, MonoQ, Superdex 200)) PRSTHTRNISLSSNGSNTNSTIILVKTTLETILNDKDIKKNSNAQKAIERTLQKFKEFDPQTTNNPHYVDSILVFEALRASCRTKSSKVQSLALDCLSKLFSFRSLDETLLVNPPDSLASNDQRQDAADGITPPPKQKIIDAAIDTISDCFQGEGTDDRVELQIVRALSSCILEEDSSSLCHGASLLKAIRTIYNVFVFSLNPSNQGIAQATLTQIISSVYDKIDLKQSTSSAVSLSTKNHQQQSAIELSEASENAETPAPLTLENMDKLNDDEERLMDAQQPDSIAITNQDLAVKDAFLVFRVMAKICAKPLETELDMRSHAVRSKLLSLHIIYSIIKDHIDVFLSHNIFLPGKERVCFIDSIRQYLRLVLSRNAASPLAPVFEVTLEIMWLLIANLRADFVKEIPVFLTEIYFPISELTTSTSQQKRYFLSVIQRICNDPRTLVEFYLNYDCNPGMPNVMEITVDYLTRLALTRVEITQTQRSYYDEQISKSLSTYNFSQLPLLTSSNLSSSPDVGQVNLLFPLDFALKMVSLNCIVSVLRSLSSWAHKALNPNTHTANKVLLNTTSSARQESRSSLSNDVRSSIMTSNDDFKPTYEDEESRSLSSQNIDADDPTQFENLKLRKTALSECIAIFNNKPKKAIPVLIKKGFLKDDSPISIAKWLLETEGLDMAAVGDYLGEGDDKNIAIMHAFVDEFDFTGMSIVDALRSFLQSFRLPGEGQKIDRFMLKFAERFVDQNPGVFSKADTAYVLSYSLIMLNTDLHSSQIKNKMSLQEFLENNEGIDNGRDLPRDFLEGLFNEIANNEIKLISEQH",2,binding result (GST-Arf1): no binding
"S. cerevisiae Sec7f (residues 203-2009) (domain or fragment, UniProt P11075 203-2009, looked up, Sec7 (Arf-GEF) of S. cerevisiae, residues 203-2009; source: E. coli, purified (Ni-NTA, MonoQ, Superdex 200)) PRSTHTRNISLSSNGSNTNSTIILVKTTLETILNDKDIKKNSNAQKAIERTLQKFKEFDPQTTNNPHYVDSILVFEALRASCRTKSSKVQSLALDCLSKLFSFRSLDETLLVNPPDSLASNDQRQDAADGITPPPKQKIIDAAIDTISDCFQGEGTDDRVELQIVRALSSCILEEDSSSLCHGASLLKAIRTIYNVFVFSLNPSNQGIAQATLTQIISSVYDKIDLKQSTSSAVSLSTKNHQQQSAIELSEASENAETPAPLTLENMDKLNDDEERLMDAQQPDSIAITNQDLAVKDAFLVFRVMAKICAKPLETELDMRSHAVRSKLLSLHIIYSIIKDHIDVFLSHNIFLPGKERVCFIDSIRQYLRLVLSRNAASPLAPVFEVTLEIMWLLIANLRADFVKEIPVFLTEIYFPISELTTSTSQQKRYFLSVIQRICNDPRTLVEFYLNYDCNPGMPNVMEITVDYLTRLALTRVEITQTQRSYYDEQISKSLSTYNFSQLPLLTSSNLSSSPDVGQVNLLFPLDFALKMVSLNCIVSVLRSLSSWAHKALNPNTHTANKVLLNTTSSARQESRSSLSNDVRSSIMTSNDDFKPTYEDEESRSLSSQNIDADDPTQFENLKLRKTALSECIAIFNNKPKKAIPVLIKKGFLKDDSPISIAKWLLETEGLDMAAVGDYLGEGDDKNIAIMHAFVDEFDFTGMSIVDALRSFLQSFRLPGEGQKIDRFMLKFAERFVDQNPGVFSKADTAYVLSYSLIMLNTDLHSSQIKNKMSLQEFLENNEGIDNGRDLPRDFLEGLFNEIANNEIKLISEQHQAMLSGDTNLVQQQQSAFNFFNSRDLTREAYNQVSKEISSKTELVFKNLNKNKGGPDVYYAASHVEHVKSIFETLWMSFLAALTPPFKDYDDIDTTNKCLEGLKISIKIASTFRINDARTSFVGALVQFCNLQNLEEIKVKNVNAMVILLEVALSEGNYLEGSWKDILLVVSQMERLQLISKGIDRDTVPDVAQARVANPRVSYESSRSNNTSFFDVWGKKATPTELAQEKHHNQTLSPEISKFISSSELVVLMDNIFTKSSELSGNAIVDFIKALTAVSLEEIESSENASTPRMFSLQKMVDVCYYNMDRIKLEWTPLWAVMGKAFNKIATNSNLAVVFFAIDSLRQLSMRFLDIEELSGFEFQHDFLKPFEYTVQNSGNTEVQEMIIECFRNFILTKSESIKSGWKPILESLQYTARSSTESIVLKTQLLVSNDIVTNHFENVFSQEDAFSELVGVFREITKNKRFQKLSLHALESLRKMTQNVADICFYNENKTEEERKHNDALLRGKDIFQDVWFPMLFCFNDTIMTAEDLEVRSRALNYMFDALVAYGGKFNDDFWEKICKKLLFPIFGVLSKHWEVNQFNSHDDLSVWLSTTLIQALRNLIALFTHYFESLNRMLDGFLGLLVSCICQENDTIARIGRSCLQQLILQNVSKFNEYHWNQIGDVFDKLFDLTTANELFDYDPLQQGRKSSVSHHQTTNDTSQHSDDDSNDRRENDSNISETVERAHQEESSEDVGGDMVETLNGQTKLNNGNSVPTVKDELNPKPASLSIPKKTKHMKRNESNEDIRRRINIKNSIVVKCVLQLLMIELLNELFENEDFAHCIPYKEAIRITRLLEKSYEFSRDFNEDYGLRTRLVEARVVDKIPNLLKQETSAAAVLLDIMFQLYLNDDEKKADLITRLITICIQVVEGYVSLDDRTMERSINAWRSVIVEILQGYYEFDDEDFRLYCPAMYALVIQILDKSVPTELRHAIKQFLSRVGELYLSTD",2,
